Legend:
[1] = target: IL-6 receptor (IL6R) (human) (UniProt P08887); experiment: cell-based or functional assay
[2] = target: IFNGR1 (human) (UniProt P15260); experiment: cell-based or functional assay
UniProt P15260, sequence (P15260 18-489): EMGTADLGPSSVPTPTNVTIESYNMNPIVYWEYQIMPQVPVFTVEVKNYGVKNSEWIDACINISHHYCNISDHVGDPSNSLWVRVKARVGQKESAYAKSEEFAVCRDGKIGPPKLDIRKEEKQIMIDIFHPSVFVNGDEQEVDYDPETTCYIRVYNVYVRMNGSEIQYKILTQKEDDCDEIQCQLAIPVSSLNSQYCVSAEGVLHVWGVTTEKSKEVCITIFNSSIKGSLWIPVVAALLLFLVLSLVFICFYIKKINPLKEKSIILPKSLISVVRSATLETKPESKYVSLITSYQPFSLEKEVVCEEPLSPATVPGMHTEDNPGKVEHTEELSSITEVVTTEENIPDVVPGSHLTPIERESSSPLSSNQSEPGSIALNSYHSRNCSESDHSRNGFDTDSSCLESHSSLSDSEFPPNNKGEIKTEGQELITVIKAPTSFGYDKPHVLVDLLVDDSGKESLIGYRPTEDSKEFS

UniProt P08887, sequence (P08887 20-468): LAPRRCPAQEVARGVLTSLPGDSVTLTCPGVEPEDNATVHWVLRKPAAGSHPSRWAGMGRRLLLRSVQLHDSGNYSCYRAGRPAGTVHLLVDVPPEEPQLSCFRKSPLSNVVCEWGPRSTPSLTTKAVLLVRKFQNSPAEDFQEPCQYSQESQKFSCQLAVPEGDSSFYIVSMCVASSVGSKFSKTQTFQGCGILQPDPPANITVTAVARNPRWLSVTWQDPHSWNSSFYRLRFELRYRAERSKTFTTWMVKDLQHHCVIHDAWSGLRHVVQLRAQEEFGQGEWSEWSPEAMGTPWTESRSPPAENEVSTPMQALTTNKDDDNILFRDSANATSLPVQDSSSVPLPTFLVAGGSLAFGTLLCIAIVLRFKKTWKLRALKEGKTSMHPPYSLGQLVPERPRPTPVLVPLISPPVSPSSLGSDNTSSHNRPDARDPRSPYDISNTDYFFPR

| pSTAT1 levels after IL-6 in THP1-Cas9 cells with gRNAs targeting IL6R (fold reduction) [1] | pSTAT3 levels after IL-6 in THP1-Cas9 cells with gRNAs targeting IL6R (fold reduction) [1] | pSTAT1 levels after IFNγ in THP1-Cas9 cells with gRNAs targeting IFNGR1 (fold decrease) [2] | percent of cells with increased pSTAT1 after IFNγ, clusters with gRNAs targeting IFNGR1 [2] [%] | Substance |
| --- | --- | --- | --- | --- |
| 2 | 2 |  |  | IL-6 (from UniProt P05231 30-212) (ligand) |
|  |  | 15 | 25 | IFNγ (from UniProt P01579 24-166) (ligand) |

Reference: patent publication US20240076330A1
